Experiment [1] deals with T1, 食蟹猴CTLA-4.ECD-6xHis (cynomolgus monkey) (UniProt G7PL88).
T1 sequence: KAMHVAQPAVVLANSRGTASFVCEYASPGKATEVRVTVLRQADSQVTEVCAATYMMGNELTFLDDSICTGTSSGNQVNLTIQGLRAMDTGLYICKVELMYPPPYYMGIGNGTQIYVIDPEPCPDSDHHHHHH
The experiment in a line: ELISA; cynomolgus CTLA-4.ECD-6xHis coated at 0.5 μg/mL.

Experiment [2] has as its target 人CTLA-4.ECD.hFc (human) (UniProt P16410). In words: FACS competition; biotinylated hCTLA-4.ECD.hFc on CD80-expressing CHO cells (competitor CD80).
Experiment [3] has the same target. The experiment in a line: competition ELISA; CTLA-4.ECD.hFc coated, competitor CD80-6xHis at 0.25 μg/mL.
The target of experiment [4] is 全长人CTLA-4 on cells (293F stable line) (human) (UniProt P16410). The experiment in a line: FACS affinity (modified Benedict method) on cells expressing human CTLA-4.
Experiment [5] has as its target 人CTLA-4.ECD-6xHis (human) (UniProt P16410). The experiment in a line: SPR (Biacore T200); antibody captured on anti-human Fc, hCTLA-4.ECD-6xHis as analyte, 1:1 fit.
In experiment [6] the target is 人CTLA-4.ECD.hFc (human) (UniProt P16410). In words: competition ELISA; CTLA-4.ECD.hFc coated, competitor CD86-6xHis at 0.25 μg/mL.
Experiment [7] shares this target. In words: FACS competition; biotinylated hCTLA-4.ECD.hFc on CD86-expressing CHO cells (competitor CD86).
For experiment [8], the target named is T1, 食蟹猴CTLA-4.ECD-6xHis (cynomolgus monkey). In words: SPR; antibody captured, cynomolgus CTLA-4.ECD-6xHis as analyte, 1:1 fit.
Experiment [9] deals with 人CTLA-4.ECD-6xHis (human) (UniProt P16410). The experiment in a line: ELISA; human CTLA-4.ECD-6xHis coated at 1.0 μg/mL.
Experiment [10] has as its target 全长人CTLA-4 on cells (293F stable line) (human) (UniProt P16410). The experiment in a line: FACS on 293F cells expressing human CTLA-4.
In experiment [11] the target is 小鼠CTLA-4.ECD-6xHis (mouse) (UniProt P09793). The experiment in a line: SPR; antibody captured, mouse CTLA-4.ECD-6xHis as analyte, 1:1 fit.
Experiment [12] has the same target. In words: ELISA; mouse CTLA-4.ECD-6xHis coated at 0.5 μg/mL.

B1: W3162-1.154.8-z35-IgGk (antibody, from another filing, V domains shown)
VH: QVQLVQSGAEVKKPGSSVKVSCKASGYTFTNYFMNWVRQAPGQGLEWMGRVDPEQGRADYAEKFKKRVTITADKSTSTAYMELSSLRSEDTAVYYCARRAMDNYGFAYWGQGTLVTVSS
VL: EIVLTQSPDFQSVTPKEKVTITCSANSALSYMYWYQQKPDQSPKLWVHGTSNLASGVPSRFSGSGSGTDFTLTINSLEAEDAATYYCHHWSNTQWTFGGGTKVEIK
B1: the EC50 amounted to 50 pM in experiment [1], 40 pM in experiment [9] and 660 pM in experiment [10]. Besides, the IC50 in experiment [2] came to 70 pM; in experiment [3], 630 pM; in experiment [6] it was 500 pM; in [7] it was 280 pM. The percent of CTLA-4 binding blocked at the highest concentration in [2] amounted to 89%; in experiment [7], 98%. Moreover, the figures for the Kd in experiment [4], in [5] and in experiment [8] were 350 pM, 96.8 pM and 131 pM, respectively.

B2: W3162-1.146.19-z12-IgGk (antibody, from another filing, V domains shown)
VH: QVQLQESGPGLVKPSETLSLTCSVTYHTITSGYDWTWIRKPPGKGMEWIGYISYSGNTNYNPSLKSRVTISRDTSKNQFFLKLSSVTAADTAVYYCASMMVPHYYVMDAWGQGTLVTVSS
VL: DIVMTQTPLSLSVTPGQPASISCRSSQSLLNSDGNTYLYWYLQKPGQSPQLLIYLVSKLGSGVPNRFSGSGSGTDFTLKISRVEAEDVGVYYCVQGTHDPWTFGGGTKVEIK
Regarding B2, the Kd in experiment [11] turned out to be 1390 pM; in [4], 5050 pM; in experiment [5], 477 pM; in experiment [8], 1920 pM. The EC50 turned out to be 190 pM in [12], 50 pM in [1], 30 pM in [9] and 1580 pM in [10]. In addition, the IC50 in experiment [2] was found to be 6600 pM; in [3], 870 pM; in experiment [6], 710 pM; in experiment [7], 5150 pM. For the same molecule, the percent of CTLA-4 binding blocked at the highest concentration in experiment [2] stood at 71%; in experiment [7], 73%.

The record behind these values is patent publication CN108948194A.
